Experimental findings from publication doi:10.1101/2021.01.21.427698 (bioRxiv, 2021) are described below.

B2: human SEPT6 (natural protein)
chain: MAATDIARQVGEGCRTVPLAGHVGFDSLPDQLVNKSVSQGFCFNILCVGETGLGKSTLMDTLFNTKFEGEPATHTQPGVQLQSNTYDLQESNVRLKLTIVSTVGFGDQINKEDSYKPIVEFIDAQFEAYLQEELKIRRVLHTYHDSRIHVCLYFIAPTGHSLKSLDLVTMKKLDSKVNIIPIIAKADAISKSELTKFKIKITSELVSNGVQIYQFPTDDESVAEINGTMNAHLPFAVIGSTEELKIGNKMMRARQYPWGTVQVENEAHCDFVKLREMLIRVNMEDLREQTHTRHYELYRRCKLEEMGFKDTDPDSKPFSLQETYEAKRNEFLGELQKKEEEMRQMFVQRVKEKEAELKEAEKELHEKFDRLKKLHQDEKKKLEDKKKSLDDEVNAFKQRKTAAELLQSQGSQAGGSQTLKRDKEKKN
B5: human SEPT2 with a TEV-cleavable N-terminal His6-tag (natural protein)
chain: MSKQQPTQFINPETPGYVGFANLPNQVHRKSVKKGFEFTLMVVGESGLGKSTLINSLFLTDLYPERVIPGAAEKIERTVQIEASTVEIEERGVKLRLTVVDTPGYGDAINCRDCFKTIISYIDEQFERYLHDESGLNRRHIIDNRVHCCFYFISPFGHGLKPLDVAFMKAIHNKVNIVPVIAKADTLTLKERERLKKRILDEIEEHNIKIYHLPDAESDEDEDFKEQTRLLKASIPFSVVGSNQLIEAKGKKVRGRLYPWGVVEVENPEHNDFLKLRTMLITHMQDLQEVTQDLHYENFRSERLKRGGRKVENEDMNKDQILLEKEAELRRMQEMIARMQAQMQMQMQGGDGDGGALGHHV

Data set [1] deals with the molecule itself. Kind of data set: native gel or EMSA.
Data set [2] addresses B5.
Data set [3] deals with the molecule itself. Kind of data set: negative-stain single-particle electron microscopy.
Data set [4] deals with B2. Description: two-tag affinity co-purification of co-expressed proteins.

B1: human SEPT9_i1 with a TEV-cleavable C-terminal Strep-tag-II (natural protein)
chain: MKKSYSGGTRTSSGRLRRLGDSSGPALKRSFEVEEVETPNSTPPRRVQTPLLRATVASSTQKFQDLGVKNSEPSARHVDSLSQRSPKASLRRVELSGPKAAEPVSRRTELSIDISSKQVENAGAIGPSRFGLKRAEVLGHKTPEPAPRRTEITIVKPQESAHRRMEPPASKVPEVPTAPATDAAPKRVEIQMPKPAEAPTAPSPAQTLENSEPAPVSQLQSRLEPKPQPPVAEATPRSQEATEAAPSCVGDMADTPRDAGLKQAPASRNEKAPVDFGYVGIDSILEQMRRKAMKQGFEFNIMVVGQSGLGKSTLINTLFKSKISRKSVQPTSEERIPKTIEIKSITHDIEEKGVRMKLTVIDTPGFGDHINNENCWQPIMKFINDQYEKYLQEEVNINRKKRIPDTRVHCCLYFIPATGHSLRPLDIEFMKRLSKVVNIVPVIAKADTLTLEERVHFKQRITADLLSNGIDVYPQKEFDEDSEDRLVNEKFREMIPFAVVGSDHEYQVNGKRILGRKTKWGTIEVENTTHCEFAYLRDLLIRTHMQNIKDITSSIHFEAYRVKRLNEGSSAMANGVEEKEPEAPEM
For the molecule B1, in data set [1], the binding result is on record as “binds”.

For the molecule B2, the “stoichiometry N” value in data set [2] was 1.

B3: human SEPT9_i3 with a TEV-cleavable C-terminal Strep-tag-II (natural protein)
chain: MERDRISALKRSFEVEEVETPNSTPPRRVQTPLLRATVASSTQKFQDLGVKNSEPSARHVDSLSQRSPKASLRRVELSGPKAAEPVSRRTELSIDISSKQVENAGAIGPSRFGLKRAEVLGHKTPEPAPRRTEITIVKPQESAHRRMEPPASKVPEVPTAPATDAAPKRVEIQMPKPAEAPTAPSPAQTLENSEPAPVSQLQSRLEPKPQPPVAEATPRSQEATEAAPSCVGDMADTPRDAGLKQAPASRNEKAPVDFGYVGIDSILEQMRRKAMKQGFEFNIMVVGQSGLGKSTLINTLFKSKISRKSVQPTSEERIPKTIEIKSITHDIEEKGVRMKLTVIDTPGFGDHINNENCWQPIMKFINDQYEKYLQEEVNINRKKRIPDTRVHCCLYFIPATGHSLRPLDIEFMKRLSKVVNIVPVIAKADTLTLEERVHFKQRITADLLSNGIDVYPQKEFDEDSEDRLVNEKFREMIPFAVVGSDHEYQVNGKRILGRKTKWGTIEVENTTHCEFAYLRDLLIRTHMQNIKDITSSIHFEAYRVKRLNEGSSAMANGVEEKEPEAPEM
On to B3, for which the binding result in data set [1] is “binds”.

B4: human SEPT9_i3 with a noncleavable C-terminal Strep-tag-II (as in the mammalian octamers-9_i3) (natural protein)
chain: MERDRISALKRSFEVEEVETPNSTPPRRVQTPLLRATVASSTQKFQDLGVKNSEPSARHVDSLSQRSPKASLRRVELSGPKAAEPVSRRTELSIDISSKQVENAGAIGPSRFGLKRAEVLGHKTPEPAPRRTEITIVKPQESAHRRMEPPASKVPEVPTAPATDAAPKRVEIQMPKPAEAPTAPSPAQTLENSEPAPVSQLQSRLEPKPQPPVAEATPRSQEATEAAPSCVGDMADTPRDAGLKQAPASRNEKAPVDFGYVGIDSILEQMRRKAMKQGFEFNIMVVGQSGLGKSTLINTLFKSKISRKSVQPTSEERIPKTIEIKSITHDIEEKGVRMKLTVIDTPGFGDHINNENCWQPIMKFINDQYEKYLQEEVNINRKKRIPDTRVHCCLYFIPATGHSLRPLDIEFMKRLSKVVNIVPVIAKADTLTLEERVHFKQRITADLLSNGIDVYPQKEFDEDSEDRLVNEKFREMIPFAVVGSDHEYQVNGKRILGRKTKWGTIEVENTTHCEFAYLRDLLIRTHMQNIKDITSSIHFEAYRVKRLNEGSSAMANGVEEKEPEAPEM
B4: the binding result in data set [3] is listed as “binds”.

In the case of B5, the binding result in data set [4] is reported as “binds”.
